Data from patent US20250243261A1 (CZ BIOHUB SF, published 2025).

Target: T1, full-length Ebola GP on pseudotyped lentivirus (Zaire ebolavirus, UniProt Q05320 33-676)
T1 sequence: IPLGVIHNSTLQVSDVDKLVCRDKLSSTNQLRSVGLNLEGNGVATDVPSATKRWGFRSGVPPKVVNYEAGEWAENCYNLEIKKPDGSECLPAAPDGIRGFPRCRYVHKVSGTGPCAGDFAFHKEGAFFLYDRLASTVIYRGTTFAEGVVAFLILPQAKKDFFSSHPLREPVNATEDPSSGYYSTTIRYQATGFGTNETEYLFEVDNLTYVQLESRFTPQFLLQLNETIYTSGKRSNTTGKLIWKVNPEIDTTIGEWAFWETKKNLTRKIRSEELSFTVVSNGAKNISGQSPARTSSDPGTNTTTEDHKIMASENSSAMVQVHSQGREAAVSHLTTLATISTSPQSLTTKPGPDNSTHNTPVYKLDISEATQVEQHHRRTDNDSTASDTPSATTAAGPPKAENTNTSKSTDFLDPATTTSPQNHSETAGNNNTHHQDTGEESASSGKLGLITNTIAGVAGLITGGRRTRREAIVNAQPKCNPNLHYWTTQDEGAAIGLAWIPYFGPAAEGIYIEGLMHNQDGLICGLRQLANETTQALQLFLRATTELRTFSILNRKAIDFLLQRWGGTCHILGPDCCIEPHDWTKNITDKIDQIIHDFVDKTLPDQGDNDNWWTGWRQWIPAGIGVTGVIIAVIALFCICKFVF
Test: cell-based or functional assay

B1: mAb114 WT IgG (antibody, V domains shown)
VH: EVQLVESGGGLIQPGGSLRLSCAASGFALRMYDMHWVRQTIDKRLEWVSAVGPSGDTYYADSVKGRFAVSRENAKNSLSLQMNSLTAGDTAIYYCVRSDRGVAGLFDSWGQGILVTVSS
VL: DIQMTQSPSSLSASVGDRITITCRASQAFDNYVAWYQQRPGKVPKLLISAASALHAGVPSRFSGSGSGTHFTLTISSLQPEDVATYYCQNYNSAPLTFGGGTKVEIK
Ebola GP pseudotyped lentivirus IC50: 1.43 nM
